Measured values reported in US20130171059A1 (AbbVie / Abbott, published 2013).

T1: Recombinant Human SOST (human, UniProt Q9BQB4 24-213)
T1 sequence (looked up): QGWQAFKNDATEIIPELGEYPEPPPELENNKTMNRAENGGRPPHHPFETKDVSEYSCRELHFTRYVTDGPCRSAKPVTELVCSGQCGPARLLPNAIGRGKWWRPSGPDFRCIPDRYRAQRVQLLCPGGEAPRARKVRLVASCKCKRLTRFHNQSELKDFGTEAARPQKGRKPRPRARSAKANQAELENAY

B1: DVD1985 (bispecific antibody)
DVD-H: DIQMTQSPSSLSASVGDRVTITCRASQSISNNLNWYQQKPGKAPKLLIYYTSRFHSGVPSRFSGSGSGTDFTFTISSLQPEDIATYYCQQEHTLPYTFGQGTKLEIKRTVAAPQVQLVESGGGVVQPGRSLRLSCAASGFTFSSYDMHWVRQAPGKGLEWVAVIWSDGSIKYYADSVKGRFTISRDNSKNTLYLQMNSLRAEDTAVYYCAREVESAMGGFYYNGMDVWGQGTTVTVSS
DVD-L: QVQLQESGPGLVKPSETLSLTCTVSGFSLIGYDLNWIRQPPGKGLEWIGIIWGDGTTDYNSAVKSRVTISKDTSKNQFSLKLSSVTAADTAVYYCARGGYWYATSYYFDYWGQGTLVTVSSASTKGPDIQMTQSPSSLSASVGDRVTITCRASQGIRIDLGWYQQKPGKAPKRLIYAASTLQSGVPSRFSGSGSGTEFIFTISSLQPEDFASYYCLQHKSYPLTFGGGTKVEIK
notes: VH/VL crossover DVD-Ig; also called DVD1985H + DVD1985L; copies: 2 + 2
B2: DVD1982 (bispecific antibody, not shown: a dimerising Fc or GST)
heavy: DIQMTQSPSSLSASVGDRVTITCRASQGIRIDLGWYQQKPGKAPKRLIYAASTLQSGVPSRFSGSGSGTEFIFTISSLQPEDFASYYCLQHKSYPLTFGGGTKVEIKRTVAAPEVQLQQSGPELVTPGASVKISCKASGYTFTDHYMSWVKQSHGKSLEWIGDINPYSGETTYNQKFKGTATLTVDKSSSIAYMEIRGLTSEDSAVYYCARDDYDASPFAYWGQGTLVTVSA
light: QVQLVESGGGVVQPGRSLRLSCAASGFTFSSYDMHWVRQAPGKGLEWVAVIWSDGSIKYYADSVKGRFTISRDNSKNTLYLQMNSLRAEDTAVYYCAREVESAMGGFYYNGMDVWGQGTTVTVSSASTKGPDVQMIQSPSSLSASLGDIVTMTCQASQGTSINLNWFQQKPGKAPKLLIYGSSNLEDGVPSRFSGSRYGTDFTLTISSLEDEDLATYFCLQHSYLPYTFGGGTKLEIKR
B3: AB022 (antibody, V domains shown)
VH: EVQLQQSGPELVTPGASVKISCKASGYTFTDHYMSWVKQSHGKSLEWIGDINPYSGETTYNQKFKGTATLTVDKSSSIAYMEIRGLTSEDSAVYYCARDDYDASPFAYWGQGTLVTVSA
VL: DVQMIQSPSSLSASLGDIVTMTCQASQGTSINLNWFQQKPGKAPKLLIYGSSNLEDGVPSRFSGSRYGTDFTLTISSLEDEDLATYFCLQHSYLPYTFGGGTKLEIKR
notes: Parent antibody; also called SOST parent antibody
B4: AB213 (antibody, V domains shown)
VH: QVQLKESGPGLVAPSQSLSITCTVSGFSLTDYGVNWVRQPPGKGLEWLGMIWGDGSTDYDSTLKSRLSISKDNSKSQIFLKMNSLQTDDTARYYCAREWHHGPVAYWGQGTLVTVSA
VL: DIVMTQSHKFMSTTVGDRVSITCKASQAVSSAVAWYQQKPGQSPKLLIYWASTRHTGVPDRFTGSGSVTDFTLTIHNLQAEDLALYYCQQHYSTPFTFGSGTKLEIKR
notes: Parent antibody
B5: DVD1959 (bispecific antibody, not shown: a dimerising Fc or GST)
heavy: DVQMIQSPSSLSASLGDIVTMTCQASQGTSINLNWFQQKPGKAPKLLIYGSSNLEDGVPSRFSGSRYGTDFTLTISSLEDEDLATYFCLQHSYLPYTFGGGTKLEIKRTVAAPQVQLKESGPGLVAPSQSLSITCTVSGFSLTDYGVNWVRQPPGKGLEWLGMIWGDGSTDYDSTLKSRLSISKDNSKSQIFLKMNSLQTDDTARYYCAREWHHGPVAYWGQGTLVTVSA
light: EVQLQQSGPELVTPGASVKISCKASGYTFTDHYMSWVKQSHGKSLEWIGDINPYSGETTYNQKFKGTATLTVDKSSSIAYMEIRGLTSEDSAVYYCARDDYDASPFAYWGQGTLVTVSAASTKGPDIVMTQSHKFMSTTVGDRVSITCKASQAVSSAVAWYQQKPGQSPKLLIYWASTRHTGVPDRFTGSGSVTDFTLTIHNLQAEDLALYYCQQHYSTPFTFGSGTKLEIKR
B6: DVD1983 (bispecific antibody, not shown: a dimerising Fc or GST)
heavy: DVQMIQSPSSLSASLGDIVTMTCQASQGTSINLNWFQQKPGKAPKLLIYGSSNLEDGVPSRFSGSRYGTDFTLTISSLEDEDLATYFCLQHSYLPYTFGGGTKLEIKRTVAAPQVQLVESGGGVVQPGRSLRLSCAASGFTFSSYDMHWVRQAPGKGLEWVAVIWSDGSIKYYADSVKGRFTISRDNSKNTLYLQMNSLRAEDTAVYYCAREVESAMGGFYYNGMDVWGQGTTVTVSS
light: EVQLQQSGPELVTPGASVKISCKASGYTFTDHYMSWVKQSHGKSLEWIGDINPYSGETTYNQKFKGTATLTVDKSSSIAYMEIRGLTSEDSAVYYCARDDYDASPFAYWGQGTLVTVSAASTKGPDIQMTQSPSSLSASVGDRVTITCRASQGIRIDLGWYQQKPGKAPKRLIYAASTLQSGVPSRFSGSGSGTEFIFTISSLQPEDFASYYCLQHKSYPLTFGGGTKVEIKR
B7: AB218 (antibody, V domains shown)
VH: EVQLVESGGGLIQPGGSLRLSCAASGFTVSRNYMSWVRQAPGKGLEWVSVIYSGDRTYYADSVKGRFTISRDNSKNTLYLQMNSLRAEDTAVYYCARGEGGFDYWGQGTLVTVSS
VL: EIVMTQSPATLSVSPGERATLSCRASQSVSSNLAWYQQKPGQAPRLLIHGASIRATGLPARFSGSGSGTEFTLTISSLQSEDFAVYYCQQYNYWWTFGQGTKVEIKR
notes: Parent antibody
B8: DVD1993 (bispecific antibody)
DVD-H: DIQMTQSPSSLSASVGDRVTITCRASQSISNNLNWYQQKPGKAPKLLIYYTSRFHSGVPSRFSGSGSGTDFTFTISSLQPEDIATYYCQQEHTLPYTFGQGTKLEIKRTVAAPEVQLVESGGGLIQPGGSLRLSCAASGFTVSRNYMSWVRQAPGKGLEWVSVIYSGDRTYYADSVKGRFTISRDNSKNTLYLQMNSLRAEDTAVYYCARGEGGFDYWGQGTLVTVSS
DVD-L: QVQLQESGPGLVKPSETLSLTCTVSGFSLIGYDLNWIRQPPGKGLEWIGIIWGDGTTDYNSAVKSRVTISKDTSKNQFSLKLSSVTAADTAVYYCARGGYWYATSYYFDYWGQGTLVTVSSASTKGPEIVMTQSPATLSVSPGERATLSCRASQSVSSNLAWYQQKPGQAPRLLIHGASIRATGLPARFSGSGSGTEFTLTISSLQSEDFAVYYCQQYNYWWTFGQGTKVEIK
notes: VH/VL crossover DVD-Ig; also called DVD1993H + DVD1993L; copies: 2 + 2
B9: AB217 (antibody, V domains shown)
VH: QVQLVESGGGVVQPGRSLRLSCAASGFTFSSYDMHWVRQAPGKGLEWVAVIWSDGSIKYYADSVKGRFTISRDNSKNTLYLQMNSLRAEDTAVYYCAREVESAMGGFYYNGMDVWGQGTTVTVSS
VL: DIQMTQSPSSLSASVGDRVTITCRASQGIRIDLGWYQQKPGKAPKRLIYAASTLQSGVPSRFSGSGSGTEFIFTISSLQPEDFASYYCLQHKSYPLTFGGGTKVEIKR
notes: Parent antibody

How the values were obtained:
[1] = target: T2, Recombinant Human TNF-α/TNFSF1A (human, UniProt P01375 77-233); test: SPR (Biacore)
T2 construct: Bought reagent for Biacore; also called huTNFα; HuTNFα
T2 sequence (P01375 77-233 limits assumed): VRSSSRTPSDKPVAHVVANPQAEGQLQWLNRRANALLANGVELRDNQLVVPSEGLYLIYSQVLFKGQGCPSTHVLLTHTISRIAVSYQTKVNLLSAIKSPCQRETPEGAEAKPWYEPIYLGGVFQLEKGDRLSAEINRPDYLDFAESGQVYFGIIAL
Method: (§1) The BIACORE assay (Biacore, Inc, Piscataway, N.J.) determined the affinity of antibodies or DVD-Ig proteins with kinetic measurements of on-rate and off-rate constants. Binding of antibodies or DVD-Ig proteins to a target antigen (for example, a purified recombinant target antigen) was determined by surface plasmon resonance-based measurements with a Biacore® 1000 or 3000 instrument (Biacore® AB, Uppsala, Sweden) using running HBS-EP (10 mM HEPES [pH 7.4], 150 mM NaCl, 3 mM EDTA, and 0.005% surfactant P20) at 25° C. All chemicals were obtained from Biacore® AB (Uppsala, Sweden) or otherwise from a different source as described in the text. For example, approximately 5000 RU of goat anti-mouse IgG, (Fcγ), fragment specific polyclonal antibody (Pierce Biotechnology Inc, Rockford, Ill.) diluted in 10 mM sodium acetate (pH 4.5) was directly immobilized across a CM5 research grade biosensor chip using a standard amine coupling kit according to manufacturer's instructions and procedures at 25 μg/ml. Unreacted moieties on the biosensor surface were blocked with ethanolamine. Modified carboxymethyl dextran surface in flowcell 2 and 4 was used as a reaction surface. Unmodified carboxymethyl dextran without goat anti-mouse IgG in flow cell 1 and 3 was used as the reference surface. For kinetic analysis, rate equations derived from the 1:1 Langmuir binding model were fitted simultaneously to association and dissociation phases of all eight injections (using global fit analysis) with the use of Biaevaluation 4.0.1 software. Purified antibodies or DVD-Ig proteins were diluted in HEPES-buffered saline for capture across goat anti-mouse IgG specific reaction surfaces. Antibodies or DVD-Ig proteins to be captured as a ligand (25 μg/ml) were injected over reaction matrices at a flow rate of 5 μl/minute. The association and dissociation rate constants, kₒₙ (M⁻¹s⁻¹) and koff (s⁻¹) were determined under a continuous flow rate of 25 μl/minute. Rate constants were derived by making kinetic binding measurements at different antigen concentrations ranging from 10-200 nM. The equilibrium dissociation constant (M) of the reaction between antibodies or DVD-Ig proteins and the target antigen was then calculated from the kinetic rate constants by the following formula: KD=koff/kₒₙ. Binding was recorded as a function of time and kinetic rate constants were calculated.

[2] = target: T3, Recombinant Human β-NGF (human, UniProt P01138 122-239, limits assumed); test: SPR (Biacore)
T3 construct: Bought reagent for Biacore; also called huNGF; NGF (Rinat)
T3 sequence (P01138 122-239 limits assumed): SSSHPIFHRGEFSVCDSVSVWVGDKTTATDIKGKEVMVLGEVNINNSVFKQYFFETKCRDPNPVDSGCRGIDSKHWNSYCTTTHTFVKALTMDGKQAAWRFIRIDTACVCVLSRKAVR
Method: as §1

[3] = target: T2, Recombinant Human TNF-α/TNFSF1A; test: cell-based or functional assay
[4] = target: T1, Recombinant Human SOST; test: cell-based or functional assay
[5] = target: T1, Recombinant Human SOST; test: SPR (Biacore)
Method: as §1

| Binder | Kd [1] | koff [1] | kon [1] | C-Terminal VD TNFα Neutralization Assay IC50 (L929 cells) [3] | TNFα Neutralization Assay IC50 (L929 cells) [3] | further results |
| --- | --- | --- | --- | --- | --- | --- |
| B1 | 0.43 nM | 1.9e-05 s⁻¹ | 45000 M⁻¹ s⁻¹ | 4.51 nM |  | Kd [2]: 0.012 nM; koff [2]: 3.7e-05 s⁻¹; kon [2]: 3.1e+06 M⁻¹ s⁻¹ |
| B2 |  |  |  |  |  | C-Terminal VD SOST Neutralization Assay IC50 (Wnt-1/luciferase HEK clone #14) [4]: > 100 nM; N-Terminal VD TNFa Neutralization Assay IC50 (L929 cells) [3]: 0.017 nM |
| B3 |  |  |  |  |  | SOST Neutralization Assay IC50 (Wnt-1/luciferase HEK clone #14) [4]: 34.8 nM; Kd [5]: 0.018 nM; koff [5]: 0.00038 s⁻¹; kon [5]: 2.1e+07 M⁻¹ s⁻¹ |
| B4 | 0.025 nM | 8.2e-05 s⁻¹ | 3.2e+06 M⁻¹ s⁻¹ |  | 0.244 nM |  |
| B5 |  |  |  | 1.52 nM |  | N-Terminal VD SOST Neutralization Assay IC50 (Wnt-1/luciferase HEK clone #14) [4]: 54.2 nM |
| B6 |  |  |  | 0.127 nM |  | N-Terminal VD SOST Neutralization Assay IC50 (Wnt-1/luciferase HEK clone #14) [4]: > 360 nM |
| B7 | 0.041 nM | 7.3e-05 s⁻¹ | 1.8e+06 M⁻¹ s⁻¹ |  | 0.179 nM |  |
| B8 | 0.43 nM | 3.5e-05 s⁻¹ | 81000 M⁻¹ s⁻¹ | 2.08 nM |  | Kd [2]: 0.0047 nM; koff [2]: 1.5e-05 s⁻¹; kon [2]: 3.3e+06 M⁻¹ s⁻¹ |
| B9 | 0.028 nM | 4.8e-05 s⁻¹ | 1.7e+06 M⁻¹ s⁻¹ |  | 0.313 nM |  |
